Source: the supplement of paper PMC7877785
± gives the uncertainty stated by the source.

Experiment: self-splicing fitness, log relative to wild type (ln ratio); higher = more splicing; Tetrahymena group I intron in knt gene, E. coli kanamycin selection, DiMSum; sequences stand for … in CUCUCU…GGAGGGAAAAGUUAUCAGGCAUGCACCUGGUAGCUAGUCUUUAAACCAAUAGAUUGCAUCGGUUUAAAAGGCAAGACCGUCAAAUUGCGGGAAAGGGGUCAACAGCCGUUCAGUACCAAGUCUCAGGGGAAACUUUGAGAUGGCCUUGCAAAGGGUAUGGUAAUAAGCUGACGGACAUGGUCCUAACCACGCAGCCAAGUCCUAAGUCAACAGAUCUUCUGUUGAUAUGGAUGCAGUUCACAGACUAAAUGUCGGUCGGGGAAGAUGUAUUCUUCUCAUAAGAUAUAGUCGGACCUCUCCUUAAUGGGAGCUAGCGGAUGAAGUGAUGCAACACUGGAGCCGCUGGGAACUAAUUUGUAUGCGAAAGUAUAUUGAUUAGUUUUGGAGUACUCGUGGUCG
Procedure, shortened: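 A randomised library covering all eight P1ex-region intron nucleotides was built with the intron in the knt kanamycin-resistance gene on pET-22b(+) and held in E. coli BL21(DE3). Cells were grown overnight at 37°C or 30°C on LB agar, with or without 25 μg/mL kanamycin, plus 100 μg/mL carbenicillin, 50 μM IPTG and 0.2% rhamnose, and pooled colonies were amplicon-sequenced on an Illumina HiSeq 2500. DiMSum fitness is the error-weighted combination of wild-type-normalised replicate fold changes, kanamycin versus none.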

Sequence | self-splicing fitness (ln) (30 °C) | self-splicing fitness (ln) (37 °C)
UGUAAGCAAUAUUACGCCUA | -0.337 ± 0.14 | 0.331 ± 0.15
UGUAAGCAAUAUUACGCGUG | -0.994 ± 0.066 | 0.0779 ± 0.079
UGUAAGCAAUAUUACGCUGA | -3.08 ± 0.26 | -1.33 ± 0.16
UGUAAGCAAUAUUACGGAUG | -0.704 ± 0.07 | -0.103 ± 0.095
UGUAAGCAAUAUUACGGAUU | -2.59 ± 0.12 | -1.09 ± 0.12
UGUAAGCAAUAUUACGGCUC | -1.94 ± 0.19 | -1.32 ± 0.29
UGUAAGCAAUAUUACGUACU | -0.07 ± 0.081 | -0.136 ± 0.092
UGUAAGCAAUAUUACGUAGC | – | -1.96 ± 0.45
UGUAAGCAAUAUUACGUCGU | -3.66 ± 0.24 | -1.97 ± 0.18
UGUAAGCAAUAUUACGUCUA | -0.00173 ± 0.09 | 0.151 ± 0.11
UGUAAGCAAUAUUACGUCUU | -1.74 ± 0.093 | -0.338 ± 0.11
UGUAAGCAAUAUUACGUGCA | -0.738 ± 0.12 | -0.62 ± 0.11
UGUAAGCAAUAUUACGUUUA | -0.814 ± 0.16 | -1.51 ± 0.14
UGUCAGCAAUAUUACGAAUC | -2.79 ± 0.28 | -1.08 ± 0.22
UGUCAGCAAUAUUACGAGAU | -3.11 ± 0.22 | -2.56 ± 0.27
UGUCAGCAAUAUUACGCACA | -0.467 ± 0.083 | -0.355 ± 0.093
UGUCAGCAAUAUUACGCCUG | 0.351 ± 0.072 | 0.582 ± 0.11
UGUCAGCAAUAUUACGCGGC | -3.06 ± 0.24 | -2.09 ± 0.31
UGUCAGCAAUAUUACGCGUA | -0.0687 ± 0.063 | 0.148 ± 0.073
UGUCAGCAAUAUUACGCUGU | -3.1 ± 0.23 | -1.63 ± 0.19
UGUCAGCAAUAUUACGGAGA | -1.58 ± 0.1 | -0.867 ± 0.091
UGUCAGCAAUAUUACGGAUU | -1.57 ± 0.083 | -0.507 ± 0.12
UGUCAGCAAUAUUACGGCAU | -3.01 ± 0.15 | -2.48 ± 0.23
UGUCAGCAAUAUUACGGCUG | -2.9 ± 0.18 | -0.843 ± 0.18
UGUCAGCAAUAUUACGGGAA | -1.71 ± 0.12 | -0.986 ± 0.11

Sequence | self-splicing fitness (ln) (30 °C) | self-splicing fitness (ln) (37 °C)
UGUCAGCAAUAUUACGGGAG | -2.78 ± 0.17 | -1.68 ± 0.14
UGUCAGCAAUAUUACGGGUC | -3.4 ± 0.14 | -2.66 ± 0.15
UGUCAGCAAUAUUACGUAAU | -1.03 ± 0.08 | -0.593 ± 0.089
UGUCAGCAAUAUUACGUACC | -0.242 ± 0.11 | -0.159 ± 0.13
UGUCAGCAAUAUUACGUCGG | -1.32 ± 0.078 | -0.266 ± 0.099
UGUCAGCAAUAUUACGUUAG | -1.07 ± 0.067 | -0.704 ± 0.065
UGUCAGCAAUAUUACGUUAU | -3.1 ± 0.12 | -1.77 ± 0.11
UGUCAGCAAUAUUACGUUUG | -1.26 ± 0.061 | 0.085 ± 0.095
UGUGAGCAAUAUUACGAAAC | – | -1.59 ± 0.35
UGUGAGCAAUAUUACGAACC | -2.06 ± 0.24 | -0.336 ± 0.27
UGUGAGCAAUAUUACGACCU | -0.867 ± 0.17 | 0.0453 ± 0.26
UGUGAGCAAUAUUACGAGGA | -2.55 ± 0.29 | -2.89 ± 0.31
UGUGAGCAAUAUUACGAGGC | -3.2 ± 0.28 | -3.1 ± 0.36
UGUGAGCAAUAUUACGAGGG | -3.77 ± 0.3 | -3.54 ± 0.42
UGUGAGCAAUAUUACGCAAA | -3.07 ± 0.37 | -1.8 ± 0.25
UGUGAGCAAUAUUACGCAGC | – | -1.77 ± 0.4
UGUGAGCAAUAUUACGCGCC | -2.07 ± 0.17 | -1.9 ± 0.38
UGUGAGCAAUAUUACGCGUU | -2.62 ± 0.2 | -1.89 ± 0.25
UGUGAGCAAUAUUACGCUGC | -1.9 ± 0.25 | –
UGUGAGCAAUAUUACGCUUG | -3.29 ± 0.31 | -3.13 ± 0.47
UGUGAGCAAUAUUACGGAAG | -2.97 ± 0.25 | -1.76 ± 0.26
UGUGAGCAAUAUUACGGGCG | -0.245 ± 0.1 | 0.233 ± 0.16
UGUGAGCAAUAUUACGGGGG | -3.23 ± 0.26 | -2.35 ± 0.23
UGUGAGCAAUAUUACGGGUU | -3.22 ± 0.31 | -1.59 ± 0.28
UGUGAGCAAUAUUACGGUAA | -2.56 ± 0.31 | -2.25 ± 0.3

Sequence | self-splicing fitness (ln) (30 °C) | self-splicing fitness (ln) (37 °C)
UGUGAGCAAUAUUACGGUCU | -3.01 ± 0.17 | -2.19 ± 0.2
UGUGAGCAAUAUUACGGUGC | -3.57 ± 0.25 | -1.77 ± 0.21
UGUGAGCAAUAUUACGUCGG | -2.11 ± 0.2 | -1.35 ± 0.29
UGUGAGCAAUAUUACGUCUU | -2.9 ± 0.29 | -2.27 ± 0.3
UGUGAGCAAUAUUACGUGGU | -3.75 ± 0.23 | -1.88 ± 0.17
UGUGAGCAAUAUUACGUGUC | – | -1.75 ± 0.28
UGUUAGCAAUAUUACGAAAA | -2.39 ± 0.46 | -1.28 ± 0.22
UGUUAGCAAUAUUACGACAC | -3.43 ± 0.47 | -2.08 ± 0.43
UGUUAGCAAUAUUACGACAU | -2.59 ± 0.021 | -1.28 ± 0.035
UGUUAGCAAUAUUACGAGAA | -2.27 ± 0.34 | -1.85 ± 0.38
UGUUAGCAAUAUUACGAGGC | -3.73 ± 0.43 | -2.67 ± 0.38
UGUUAGCAAUAUUACGAUCA | -0.0398 ± 0.15 | 0.805 ± 0.15
UGUUAGCAAUAUUACGAUUG | -0.695 ± 0.084 | -0.795 ± 0.12
UGUUAGCAAUAUUACGCACA | -1.21 ± 0.12 | -0.549 ± 0.11
UGUUAGCAAUAUUACGCGGA | -0.526 ± 0.082 | -0.401 ± 0.087
UGUUAGCAAUAUUACGCGGU | -4.19 ± 0.47 | –
UGUUAGCAAUAUUACGCGUA | -0.809 ± 0.12 | -0.454 ± 0.13
UGUUAGCAAUAUUACGCGUC | -3.45 ± 0.33 | -2.79 ± 0.36
UGUUAGCAAUAUUACGGAAU | -0.534 ± 0.34 | -1.91 ± 0.38
UGUUAGCAAUAUUACGGACU | -0.161 ± 0.079 | 0.414 ± 0.093
UGUUAGCAAUAUUACGGCAU | -3.67 ± 0.32 | -1.95 ± 0.27
UGUUAGCAAUAUUACGGCGC | -2.65 ± 0.21 | -2.22 ± 0.27
UGUUAGCAAUAUUACGGGCA | -0.664 ± 0.16 | 0.194 ± 0.18
UGUUAGCAAUAUUACGGGCC | -1.76 ± 0.18 | -1.6 ± 0.32
UGUUAGCAAUAUUACGGUUU | -2.82 ± 0.15 | -2.02 ± 0.15

Sequence | self-splicing fitness (ln) (30 °C) | self-splicing fitness (ln) (37 °C)
UGUUAGCAAUAUUACGUAGG | -2.19 ± 0.11 | -0.461 ± 0.12
UGUUAGCAAUAUUACGUCCG | -0.342 ± 0.15 | 0.113 ± 0.22
UGUUAGCAAUAUUACGUCUA | -0.124 ± 0.072 | -0.175 ± 0.071
UGUUAGCAAUAUUACGUCUG | -0.698 ± 0.12 | 0.393 ± 0.15
UGUUAGCAAUAUUACGUGAA | -2.38 ± 0.16 | -1.07 ± 0.13
UGUUAGCAAUAUUACGUGCA | -0.172 ± 0.15 | 0.0583 ± 0.19
UGUUAGCAAUAUUACGUGGA | -1.1 ± 0.22 | -1.62 ± 0.15
UUAAAGCAAUAUUACGAAAG | -1.66 ± 0.11 | -1.13 ± 0.17
UUAAAGCAAUAUUACGAACC | -1.34 ± 0.18 | -0.963 ± 0.23
UUAAAGCAAUAUUACGAAGA | -1.19 ± 0.12 | -0.63 ± 0.17
UUAAAGCAAUAUUACGAUAG | -0.00915 ± 0.088 | -0.00163 ± 0.12
UUAAAGCAAUAUUACGCAGA | -0.209 ± 0.11 | -0.133 ± 0.13
UUAAAGCAAUAUUACGCAGG | -0.165 ± 0.12 | -0.592 ± 0.15
UUAAAGCAAUAUUACGCUUG | -0.897 ± 0.096 | 0.0122 ± 0.12
UUAAAGCAAUAUUACGGAAC | -1.08 ± 0.23 | -1.69 ± 0.37
UUAAAGCAAUAUUACGGCAU | -0.866 ± 0.11 | 0.331 ± 0.12
UUAAAGCAAUAUUACGGCUU | -1.44 ± 0.082 | -0.99 ± 0.11
UUAAAGCAAUAUUACGGGGU | – | -2.21 ± 0.3
UUAAAGCAAUAUUACGUACG | 0.121 ± 0.083 | 0.746 ± 0.1
UUAAAGCAAUAUUACGUCGC | -3.09 ± 0.21 | -2.18 ± 0.23
UUAAAGCAAUAUUACGUCUA | 0.0872 ± 0.095 | 0.626 ± 0.11
UUAAAGCAAUAUUACGUCUC | -2.76 ± 0.13 | -1.4 ± 0.13
